The values below come from article PMC2764113 (Molecular Microbiology, 2009).

This series deals with the molecule itself. The experiment in a line: native gel or EMSA. On the technique in general: Mobility shift assays separate free from complexed probe on a gel.

Positions count from the first letter of the chain named. Names and notes keep the numbering of the source.

B1: Q115R Sin (enzyme, Staphylococcus aureus (plasmid pI9789))
chain: MIIGYARVSSLDQNLERQLENLKTFGAEKIFTEKQSGKSIENRPILQKALNFVRMGDRFIVESIDRLGRNYNEVIHTVNYLKDKEVQLMITSLPMMNEVIGNPLLDKFMKDLIIRILAMVSEQERNESKRRQAQGIQVAKEKGVYKGRPLLYSPNAKDPQKRVIYHRVVEMLEEGQAISKIAKEVNITRQTVYRIKHDNGLS
Consider B1, for which the binding result was “binds”.

B2: T77I/I100T/Q115R Sin (enzyme, Staphylococcus aureus (plasmid pI9789))
chain: B1 chain with T77I, I100T
For the protein B2, the binding result is “binds”.
